According to US20050049402A1 (Amgen, published 2005):
Positions count from the first letter of the chain named.

T1: p75-hFc construct (R&D Systems) (UniProt P20333 23-257)
T1 construct: Described as similar to etanercept (Enbrel); also called p75s-hFc; Etanercept surrogate
T1 sequence (looked up): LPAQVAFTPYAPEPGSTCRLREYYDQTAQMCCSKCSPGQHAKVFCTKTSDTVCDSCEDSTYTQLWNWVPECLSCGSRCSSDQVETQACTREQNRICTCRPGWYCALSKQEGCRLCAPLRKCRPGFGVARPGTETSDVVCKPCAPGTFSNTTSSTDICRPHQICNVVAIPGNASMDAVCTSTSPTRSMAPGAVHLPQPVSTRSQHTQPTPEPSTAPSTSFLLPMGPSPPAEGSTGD

T2: p55-hFc (R&D) (UniProt P19438 30-211, limits assumed)
T2 construct: Bought reagent; also called TNFα receptor p55-hFc
T2 sequence (looked up): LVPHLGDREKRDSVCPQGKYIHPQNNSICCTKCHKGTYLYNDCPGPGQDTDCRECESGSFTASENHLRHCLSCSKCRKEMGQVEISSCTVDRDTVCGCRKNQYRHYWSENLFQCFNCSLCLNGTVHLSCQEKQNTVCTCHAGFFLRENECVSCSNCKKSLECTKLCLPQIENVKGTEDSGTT

B1: 3.2 g1 (antibody, human IgG1, V domains shown)
VH: EVQLVQSGAEVKKPGESLKISCKTSEYSFTSYWIGWVRQMPGKGLEWMGIIYLGDSDTRYSPSFQGQVTISADKSISTAYLQWSSLKASDTAMYYCARSNWGLDYWGQGTLVTVSS
VL: QSVLTQPPSVSGAPGQRVTISCTGSSSNIGAGYDVHWYQQFPGTAPKLLIQGNSNRPSGVPDRFSGSKSGTSASLAITGLQAEDEADYYCQSYDSSLSGSVFGGGTKLTVL
B2: H/M PvuII chimeric TNFα (human 1-125, murine 126-157) (ligand)
chain: VRSSSRTPSDKPVAHVVANPQAEGQLQWLNRRANALLANGVELRDNQLVVPSEGLYLIYSQVLFKGQGCPSTHVLLTHTISRIAVSYQTKVNLLSAIKSPCQRETPEGAEAKPWYEPIYLGGVFQLEKGDQLSAEVNLPKYLDFAESGQVYFGVIAL
notes: also called Hu/M PVu11
B3: H/M HincII chimeric TNFα (human 1-91, murine 92-157) (ligand)
chain: B2 chain with I97V, Q102P, R103K, E104D, A111L
notes: Murine range printed 92-157 (human-aligned); also called Hu/M Hin C l1
B4: 299v1 (antibody, human IgG1, V domains shown)
VH: QVQLVESGGGVVQPGRSLRLSCAASGFTFSSYDMHWVRQAPGKGLEWVAVIWSDGSIKYYADSVKGRFTISRDNSKNTLYLQMNSLRAEDTAVYYCAREVESAMGGFYYNGMDVWGQGATVTVSS
VL: DIQMTQSPSSLSASVGDRVTITCRASQGIRIDLGWYQQKPGKAPKRLIYAASTLQSGVPSRFSGSGSGTEFIFTISSLQPEDFASYYCLQHKSYPLTFGGGTKVEIK
notes: XENOMAX derived, recombinant human IgG1 kappa; also called SC299V1
B5: 4.17 g1 (antibody, human IgG1, V domains shown)
VH: QVQLVESGGGVVQPGRSLRLSCTTSGFTFSNYGMHWVRQAPGKGLEWVAVIWYDGSIKYYVDSVKGRFTISRDNSKNTLYLQMNSLRAEDTAVYYCAREKDCGGDCYSHYGMDVWGQGTTVTVSS
VL: B4 VL with I31N, T53S, I72T, F73L, S85T, K92M, Y94L
B6: 282 (antibody, human IgG1, V domains shown)
VH: QVQLVESGGGVVQPGRSLRLSCAASGFTVSSYGMHWVRQAPGKGLEWVAVIWSNGSNKYYADSVKGRFTISRDNSKNTLYLQMNSLRAEDTAVYYCARDNGVYVGYAYYYGMDVWGQGTTVTVSS
VL: B4 VL with I31N, T53S, Q55H, I72T, F73L, S85T, K92N, L96W, G100Q
notes: XENOMAX derived, recombinant human IgG1 kappa; also called 282 Ab; SC282
B7: 291 (antibody, human IgG1, V domains shown)
VH: QVQLVESGGSVVQPGRSLRLSCAASGFTFSNYGIHWVRQAPGKGLEWVAVIWSDGSNKYYADSVKGRFTISRDNSKNTLYLQMNSLRAEDTAVYYCARELPNSGSYSGYYYYYGMDVWGQGTTVTVSS
VL: B4 VL with I31N, T53S, I72T, F73L, S85T, K92C, S93C
notes: XENOMAX derived, recombinant human IgG1 kappa; also called 291 Ab; SC291
B8: 313 (antibody, human IgG1, V domains shown)
VH: QVQLVESGGGVVQPGRSLRLSCAASGFTFSNHDIHWVRQAPGKGLEWVAVIWSDGSNKYYADSVKGRFTISRDNSKNTLYLQMNSLRAEDTAVYYCAREKMATIKGYYYYGMDVWGQGTTVTVSS
VL: B4 VL with I31N, T53S, Q55E, T69P, I72T, F73L, S85T, K92N, K107Q
notes: Recombinant human IgG1 kappa; also called 313 Ab; SC313
B9: 250 (antibody, human IgG1, V domains shown)
VH: EVQLVESGGGLIQPGGSLRLSCAASGFTVSSNYMSWVRQAPGKGLEWVSVIYSGDRTYYADSVKGRFTISRDNSKNTLYLQMNSLRAEDTAVYYCARGEGGFDYWGQGTLVTVSS
VL: EIVMTQSPATLSVSPGERATLSCRASQSVTSNLAWYQQKPGQAPRLLIHGASIRATGLPARFSGSGSGTEFTLTISSLQSEDFAVYYCQQYNYWWTFGQGTKVEIK
notes: XENOMAX derived, recombinant human IgG1 kappa; also called 250Ab; SC250
B10: 269 (antibody, human IgG1, V domains shown)
VH: B9 VH with G26E, S31R
VL: B9 VL with T30S
notes: XENOMAX derived, recombinant human IgG1 kappa; also called 269Ab; SC269
B11: Rabbit R014 Fab (Fab, V domains shown)
VH: QSLEESGGRLVTPGTPLTLTCTVSGIDLSSNTMGWFRRAPGKGLEWIGIIISSGTTYYASWVKGRFTISKTSTTVDLKITRPTTEDTATYFCARGWYEFNLWGPGTLVTVSS
VL: DVVMTQTPASVEAAVGGTVTIKCQASENIDILLAWYQQKVGQPPKLLIYRASKLASGAPSRFSGSGSGTEFTLTISDLECGDAATYYCQSNVGSTARSSYGNAFGGGTEVVVK
notes: Fab made by papain cleavage of R014
B12: H/M BglI chimeric TNFα (human 1-36, murine 37-157) (ligand)
chain: VRSSSRTPSDKPVAHVVANPQAEGQLQWLNRRANALLANGMDLKDNQLVVPADGLYLVYSQVLFKGQGCPDYVLLTHTVSRFAISYQEKVNLLSAVKSPCPKDTPEGAELKPWYEPIYLGGVFQLEKGDQLSAEVNLPKYLDFAESGQVYFGVIAL
notes: Murine range is printed as 37-157 in human-aligned numbering; also called H/MBgl1; Hu/MBgl1

How the values were obtained:
[1] = target: T3, human TNFα (Tumor Necrosis Factor-alpha), soluble (human, UniProt P01375 77-233); test: cell-based or functional assay
[2] = target: T1, p75-hFc construct (R&D Systems); test: receptor-Fc binding to TNFα constructs
[3] = target: T2, p55-hFc (R&D); test: receptor-Fc binding to TNFα constructs
[4] = target: T3, human TNFα (Tumor Necrosis …); test: KinExA, TNFα counted as three monomers
Experimental: (§1) The kinetic measurements of the anti-TNFα antibodies were evaluated using KinExA® and BIACORE® technologies. The KinExA® method involves solution-based determination of formal affinity measurements at equilibrium. To measure the binding kinetics of each human anti-TNFα antibody, two experiments in replicates of three were performed. In both experiments a known concentration of antigen was titrated and a different antibody concentration was added to each antigen titration and allowed to reach binding equilibrium. […] The results were analyzed by dual curve analysis. […] In addition, to negate the possibility of avidity effects, Fab fragments were generated by papain cleavage and the kinetic analysis was repeated (see Table 24).

[5] = target: T3, human TNFα (Tumor Necrosis …); test: KinExA, TNFα counted as one trimer
Experimental: as §1

[6] = target: human TNFα R131Q mutant (human, UniProt P01375 77-233); test: ELISA on chimeric/mutant TNFα
Description: (§2) In order to define the binding site for different antibodies, a number of residues of hTNFα were mutated using site directed mutagenesis. A panel of antibodies was screened for binding by an ELISA assay. […] Histidine at position 73 was deleted, an example is illustrated in Table 19.

[7] = target: T3, human TNFα (Tumor Necrosis …); test: ELISA on chimeric/mutant TNFα
Description: as §2

[8] = target: human TNFα R31Q mutant (human, UniProt P01375 77-233); test: ELISA on chimeric/mutant TNFα
Description: as §2

[9] = target: T4, human TNFα with histidine 73 deleted (human, UniProt P01375 77-233); test: ELISA on chimeric/mutant TNFα
T4 construct: Deletion of His73 written as two joined ranges; also called His 73del
Description: as §2

[10] = target: human TNFα R31Q, Q27E mutant (human, UniProt P01375 77-233); test: ELISA on chimeric/mutant TNFα
Description: as §2

[11] = target: B3; test: ELISA on chimeric/mutant TNFα
Description: as §2

[12] = target: B2; test: ELISA on chimeric/mutant TNFα
Description: as §2

[13] = target: B12; test: ELISA on chimeric/mutant TNFα
Description: as §2

[14] = target: T3, human TNFα (Tumor Necrosis …); test: KinExA, Fab from papain cleavage
Experimental: as §1

T4 sequence (P01375 other isoform, or with tags, fused parts or gaps): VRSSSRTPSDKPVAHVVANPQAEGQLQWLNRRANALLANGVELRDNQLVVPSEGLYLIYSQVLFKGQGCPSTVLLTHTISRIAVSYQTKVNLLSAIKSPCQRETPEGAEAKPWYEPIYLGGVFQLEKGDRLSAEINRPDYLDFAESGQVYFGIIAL

Binder: B1
IC50 1 hr Pre-incubation, TNF induced apoptosis in MCF-7 cells [1]: 93.8 pM
IC50 18 hr Pre-incubation, TNF induced apoptosis in MCF-7 cells [1]: 38.6 pM

Binder: B2
binding result [2]: binds
binding result [3]: binds

Binder: B3
binding result [2]: binds
binding result [3]: binds

Binder: B4
Kd [4]: 1.89 pM
Kd (M) High [4]: 2.76e-12 M
Kd (M) Low [4]: 1.29e-12 M
Kd [5]: 0.63 pM
Kd (M) High [5]: 9.2e-13 M
Kd (M) Low [5]: 4.3e-13 M

Binder: B5
IC50 1 hr Pre-incubation, TNF induced apoptosis in MCF-7 cells [1]: 256 pM
IC50 18 hr Pre-incubation, TNF induced apoptosis in MCF-7 cells [1]: 40.4 pM

Binder: B6
binding result [6]: binds
binding result [7]: binds
binding result [8]: binds
binding result [9]: binds
binding result [10]: binds

Binder: B7
binding result [6]: binds
binding result [8]: no binding
binding result [11]: binds
binding result [12]: binds
binding result [13]: binds

Binder: B8
binding result [6]: binds
binding result [7]: binds
binding result [8]: no binding
binding result [11]: binds
binding result [12]: binds
binding result [9]: binds
binding result [13]: binds

Binder: B9
binding result [6]: binds
binding result [7]: binds
binding result [8]: binds
binding result [9]: binds
binding result [10]: binds

Binder: B10
binding result [6]: binds
binding result [7]: binds
binding result [8]: binds
binding result [9]: binds
binding result [10]: binds

Binder: B11
Kd [14]: 0.638 pM
Kd (M) High [14]: 1.94e-10 M
Kd (M) Low [14]: 2.09e-15 M

Binder: B12
binding result [2]: binds
binding result [3]: binds
